± gives the standard deviation of the averaged measurements.
Tests used:
[1] = test system: Saccharomyces cerevisiae; test: protein stability index of tFT-peptide fusion in wild type (PSI (0-1 scale)); higher = more stable (slower turnover); conditions: genetic background: wild type
[2] = test system: Saccharomyces cerevisiae; test: protein stability index of tFT-peptide fusion in deletion strain of DOA10 (PSI (0-1 scale)); higher = more stable (slower turnover)
Protocol: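 MPS profiling in S. cerevisiae of two library types built from selected 12-aa C-degron peptides (IN1, IN2, LN1, LN3, VN2, R1-R5, W1-W3, Atg1 and Rpa12 C-termini): saturation mutagenesis libraries and C-terminal +1 capping libraries (13 aa). Each peptide is fused to the C-terminus of a sfGFP-mCherry timer, after a GGGS linker. Cells are FACS-sorted into 8 mCherry/sfGFP bins and sequenced. PSI runs from 0 (unstable) to 1 (stable), measured once in wild type and in the das1Δ or doa10Δ background.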

[3] = test system: Saccharomyces cerevisiae; test: protein stability index of tFT-peptide fusion (C-terminal peptide) (PSI (0-1 scale)); higher = more stable (slower turnover)
Protocol: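 MPS profiling in S. cerevisiae of the tFT-X12 degron library: putative degron peptides plus stable controls, 12 aa, fused to the C-terminus of a sfGFP-mCherry timer. Cells are FACS-sorted into 8 mCherry/sfGFP bins and deep-sequenced. PSI runs from 0 (unstable) to 1 (stable). Backgrounds are wild type, das1Δ and doa10Δ at 30 °C, and wild type, das1Δ, cdc34-1 and cdc53-1 at 37 °C; 2-3 technical replicates each.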

[4] = test system: Saccharomyces cerevisiae; test: as above; conditions: genetic background: wild type; temperature: 30 C
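Wherever protein stability index of tFT-peptide fusion (C-terminal peptide) is given: PSI is a weighted mean of sequencing reads over stability bins, variants kept only with over 10 reads, mCherry proximal and sfGFP distal, peptide attached via GGGS linker.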
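Wherever protein stability index of tFT-peptide fusion in deletion strain of DOA10 is given: PSI per variant is the weighted mean of its sequencing read distribution over the sorted stability bins, counting only variants with over 10 reads summed across bins.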
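Wherever protein stability index of tFT-peptide fusion in wild type is given: PSI derived as read-weighted mean over the 8 sorting bins, only variants exceeding 10 total reads kept, mCherry placed adjacent to the peptide and sfGFP distal.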

For RVTRLDAGYFRI, the protein stability index [1] was 0.673 and the protein stability index [2] was 0.702.

RVTRLDAIKFRI gave a protein stability index [1] of 0.66 and a protein stability index [2] of 0.685.

RVTRLDAISFRI gave a protein stability index [1] of 0.691 and a protein stability index [2] of 0.727.

RVTRLDAIWFRI showed a protein stability index [1] of 0.22 and a protein stability index [2] of 0.676.

In the case of RVTRLDAIYFQI, the protein stability index [1] is reported as 0.292 and the protein stability index [2] is reported as 0.305.

Sequence RVTRLDAIYFRI has a protein stability index [1] of 0.328, a protein stability index ([3]; genetic background: cdc34-1, temperature: 37 C) of 0.265 ± 0.06 and a protein stability index ([3]; genetic background: cdc53-1, temperature: 37 C) of 0.198 ± 0.0072. It also gave a protein stability index ([3]; genetic background: das1 deletion, temperature: 30 C) of 0.341 ± 0.031, a protein stability index ([3]; genetic background: das1 deletion, temperature: 37 C) of 0.351 ± 0.012 and a protein stability index ([3]; genetic background: doa10 deletion, temperature: 30 C) of 0.717 ± 0.03. The protein stability index ([3]; genetic background: wild type, temperature: 30 C) was 0.312 ± 0.014, the protein stability index ([3]; genetic background: wild type, temperature: 37 C) was 0.323 ± 0.0054 and the protein stability index [4] was 0.381 ± 0.019. It also gave a protein stability index [2] of 0.681.

For RVTRLDAIYFRIW, the protein stability index [1] was 0.234 and the protein stability index [2] was 0.577.

For RVTRLDAIYFRL, the protein stability index [1] was 0.395 and the protein stability index [2] was 0.7.

For RVTRLDAIYFRQ, the protein stability index [1] was 0.533 and the protein stability index [2] was 0.589.

For RVTRLDAIYPRI, the protein stability index [1] was 0.693 and the protein stability index [2] was 0.731.

RVTRLDAVYFRI was tested, and the protein stability index [1] was 0.442 and the protein stability index [2] was 0.68.

Sequence RVTRLDAWYFRI has a protein stability index [1] of 0.678 and a protein stability index [2] of 0.717.

RVTRLDKIYFRI gave a protein stability index [1] of 0.283 and a protein stability index [2] of 0.51.

For RVTRLMAIYFRI, the protein stability index [1] was 0.155 and the protein stability index [2] was 0.295.

For RVTRSDAIYFRI, the protein stability index [1] was 0.525 and the protein stability index [2] was 0.695.

RWLRVLLPLYFR showed a protein stability index [1] of 0.402 and a protein stability index [2] of 0.682.

Work on WLYMCSVGCWFR yielded a protein stability index [1] of 0.302 and a protein stability index [2] of 0.633.
